Substrate in this series: Nc1ncnc2c1ncn2[C@@H]1O[C@H](COP(=O)(O)OP(=O)(O)OP(=O)(O)O)[C@@H](O)[C@H]1O
Description: direct 1H NMR kinetic assay (FBP peak). In kind it is biochemical, Geobacillus stearothermophilus. The note with it: 1 mM F6P, 1 nM enzyme, pH 7.5, 10 mM sodium phosphate, 50 mM KCl, 10 mM MgCl2, 10 °C, no ribosomes, fit with substrate inhibition.

B1: PFK-A (Geobacillus stearothermophilus) (protein)
chain: MKRIGVLTSGGDSPGMNAAIRSVVRKAIYHGVEVYGVYHGYAGLIAGNIKKLEVGDVGDIIHRGGTILYTARCPEFKTEEGQKKGIEQLKKHGIEGLVVIGGDGSYQGAKKLTEHGFPCVGVPGTIDNDIPGTDFTIGFDTALNTVIDAIDKIRDTATSHERTYVIEVMGRHAGDIALWSGLAGGAETILIPEADYDMNDVIARLKRGHERGKKHSIIIVAEGVGSGVDFGRQIQEATGFETRVTVLGHVQRGGSPTAFDRVLASRLGARAVELLLEGKGGRCVGIQNNQLVDHDIAEALANKHTIDQRMYALSKELSI
notes: commercial lyophilized enzyme (Sigma-Aldrich)
The term Km denotes the substrate concentration at which the rate is half of its maximum. By kcat is commonly meant the maximal rate divided by the concentration of active sites. Take B1: the Km was found to be 84 ± 9.8 µM and the kcat is 36 ± 1.5 s⁻¹.

The values are drawn from PMC12177922, “In Vivo Ribosome-Amplified MetaBOlism, RAMBO, Effect Observed by Real Time Pulse Chase, RTPC, NMR Spectroscopy” (Biochemistry, 2025).
